Results: PMC11395016, “The Ubiquitination of Arrestin3 within the Nucleus Triggers the Nuclear Export of Mdm2, Which, in Turn, Mediates the Ubiquitination of GRK2 in the Cytosol” (International Journal of Molecular Sciences, 2024)

Target: T1, FLAG-Mdm2 (UniProt Q00987 1-491)
T1 construct: Mdm2, E3 ubiquitin ligase; source: HEK-293, transfected, in nuclear and cytoplasmic fractions
Assay: co-IP; HEK-293 cells transfected with D2R, GRK2 and FLAG-Mdm2; vehicle or 10 μM dopamine for 2 min; nuclear and cytoplasmic fractions each immunoprecipitated with FLAG beads; blot for GRK2
Conditions: partners not purified

T1 sequence (Q00987 whole entry): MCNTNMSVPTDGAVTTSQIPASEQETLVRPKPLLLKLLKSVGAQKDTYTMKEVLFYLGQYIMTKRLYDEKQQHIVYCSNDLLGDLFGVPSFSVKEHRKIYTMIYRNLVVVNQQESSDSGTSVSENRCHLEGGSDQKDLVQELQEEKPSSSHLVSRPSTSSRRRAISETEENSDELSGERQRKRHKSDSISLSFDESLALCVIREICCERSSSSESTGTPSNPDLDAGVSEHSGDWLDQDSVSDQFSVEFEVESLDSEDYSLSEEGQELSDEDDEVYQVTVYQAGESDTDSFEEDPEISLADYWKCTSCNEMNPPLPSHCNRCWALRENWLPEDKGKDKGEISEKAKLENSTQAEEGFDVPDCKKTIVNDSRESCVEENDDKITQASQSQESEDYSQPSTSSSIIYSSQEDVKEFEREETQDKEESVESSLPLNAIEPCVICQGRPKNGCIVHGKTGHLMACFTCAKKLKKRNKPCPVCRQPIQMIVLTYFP

B1: GRK2 (enzyme, UniProt P25098 1-689, looked up)
chain: MADLEAVLADVSYLMAMEKSKATPAARASKKILLPEPSIRSVMQKYLEDRGEVTFEKIFSQKLGYLLFRDFCLNHLEEARPLVEFYEEIKKYEKLETEEERVARSREIFDSYIMKELLACSHPFSKSATEHVQGHLGKKQVPPDLFQPYIEEICQNLRGDVFQKFIESDKFTRFCQWKNVELNIHLTMNDFSVHRIIGRGGFGEVYGCRKADTGKMYAMKCLDKKRIKMKQGETLALNERIMLSLVSTGDCPFIVCMSYAFHTPDKLSFILDLMNGGDLHYHLSQHGVFSEADMRFYAAEIILGLEHMHNRFVVYRDLKPANILLDEHGHVRISDLGLACDFSKKKPHASVGTHGYMAPEVLQKGVAYDSSADWFSLGCMLFKLLRGHSPFRQHKTKDKHEIDRMTLTMAVELPDSFSPELRSLLEGLLQRDVNRRLGCLGRGAQEVKESPFFRSLDWQMVFLQKYPPPLIPPRGEVNAADAFDIGSFDEEDTKGIKLLDSDQELYRNFPLTISERWQQEVAETVFDTINAETDRLEARKKAKNKQLGHEEDYALGKDCIMHGYMSKMGNPFLTQWQRRYFYLFPNRLEWRGEGEAPQSLLTMEEIQSVEETQIKERKCLLLKIRGGKQFILQCDSDPELVQWKKELRDAYREAQQLVQRVPKMKNKPRSPVVELSKVPLVQRGSANGL
notes: GPCR kinase 2 (GRK2), plasmid without a named tag; detected with antibodies against GRK2; also called GPCR kinase 2; source: HEK-293, transfected, in nuclear and cytoplasmic fractions
In the case of B1, the “ratio of band intensities in the blot, DA(+)/CF group against the DA(−)/CF group (1.0)” value is reported as 2.4.
